Legend:
[1] = test system: HeLa Kyoto; assay: solubility in G1/S (NP-40 vs SDS abundance) (log2 ratio); higher = more soluble; conditions: cell cycle stage: G1/S
[2] = test system: HeLa Kyoto; assay: solubility change mitosis vs G1/S (difference of NP-40 vs SDS log2 ratios) (log2 ratio difference); higher = more soluble in mitosis
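For solubility change mitosis vs G1/S (difference of NP-40 vs SDS log2 ratios) in this document: synchronized HeLa Kyoto cells (double thymidine block for G1/S, nocodazole release for mitosis), protein amounts in NP-40 versus SDS lysates quantified by mass spectrometry, three biological replicates.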
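For solubility in G1/S (NP-40 vs SDS abundance) in this document: HeLa Kyoto cells arrested at G1/S by double thymidine block, proteins quantified by TMT10plex mass spectrometry in mild NP-40 versus SDS extracts, three biological replicates.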

Row | Substance | solubility in G1/S (log2) [1] | solubility change mitosis (log2) [2]
1 | MAASRRSQHHHHHHQQQLQPAPGASAPPPPPPPPLSPGLAPGTTPASPTASGLAPFASPRHGLALPEGDGSRDPPDRPRSPDPVDGTSCCSTTSTICTVAAAPVVPAVSTSSAAGVAPNPAGSGSNNSPSSSSSPTSSSSSSPSSPGSSLAESPEAAGVSSTAPLGPGAAGPGTGVPAVSGALRELLEACRNGDVSRVKRLVDAANVNAKDMAGRKSSPLHFAAGFGRKDVVEHLLQMGANVHARDDGGLIPLHNACSFGHAEVVSLLLCQGADPNARDNWNYTPLHEAAIKGKIDVCIVLLQHGADPNIRNTDGKSALDLADPSAKAVLTGEYKKDELLEAARSGNEEKLMALLTPLNVNCHASDGRKSTPLHLAAGYNRVRIVQLLLQHGADVHAKDKGGLVPLHNACSYGHYEVTELLLKHGACVNAMDLWQFTPLHEAASKNRVEVCSLLLSHGADPTLVNCHGKSAVDMAPTPELRERLTYEFKGHSLLQAAREADLAKVKKTLALEIINFKQPQSHETALHCAVASLHPKRKQVTELLLRKGANVNEKNKDFMTPLHVAAERAHNDVMEVLHKHGAKMNALDTLGQTALHRAALAGHLQTCRLLLSYGSDPSIISLQGFTAAQMGNEAVQQILSESTPIRTSDVDYRLLEASKAGDLETVKQLCSSQNVNCRDLEGRHSTPLHFAAGYNRVSVVEYLLHHGADVHAKDKGGLVPLHNACSYGHYEVAELLVRHGASVNVADLWKFTPLHEAAAKGKYEICKLLLKHGADPTKKNRDGNTPLDLVKEGDTDIQDLLRGDAALLDAAKKGCLARVQKLCTPENINCRDTQGRNSTPLHLAAGYNNLEVAEYLLEHGADVNAQDKGGLIPLHNAASYGHVDIAALLIKYNTCVNATDKWAFTPLHEAAQKGRTQLCALLLAHGADPTMKNQEGQTPLDLATADDIRALLIDAMPPEALPTCFKPQATVVSASLISPASTPSCLSAASSIDNLTGPLAELAVGGASNAGDGAAGTERKEGEVAGLDMNISQFLKSLGLEHLRDIFETEQITLDVLADMGHEELKEIGINAYGHRHKLIKGVERLLGGQQGTNPYLTFHCVNQGTILLDLAPEDKEYQSVEEEMQSTIREHRDGGNAGGIFNRYNVIRIQKVVNKKLRERFCHRQKEVSEENHNHHNERMLFHGSPFINAIIHKGFDERHAYIGGMFGAGIYFAENSSKSNQYVYGIGGGTGCPTHKDRSCYICHRQMLFCRVTLGKSFLQFSTMKMAHAPPGHHSVIGRPSVNGLAYAEYVIYRGEQAYPEYLITYQIMKPEAPSQTATAAEQKT [TNKS] | 0.036 | -0.258
2 | MSENNKNSLESSLRQLKCHFTWNLMEGENSLDDFEDKVFYRTEFQNREFKATMCNLLAYLKHLKGQNEAALECLRKAEELIQQEHADQAEIRSLVTWGNYAWVYYHMGRLSDVQIYVDKVKHVCEKFSSPYRIESPELDCEEGWTRLKCGGNQNERAKVCFEKALEKKPKNPEFTSGLAIASYRLDNWPPSQNAIDPLRQAIRLNPDNQYLKVLLALKLHKMREEGEEEGEGEKLVEEALEKAPGVTDVLRSAAKFYRRKDEPDKAIELLKKALEYIPNNAYLHCQIGCCYRAKVFQVMNLRENGMYGKRKLLELIGHAVAHLKKADEANDNLFRVCSILASLHALADQYEDAEYYFQKEFSKELTPVAKQLLHLRYGNFQLYQMKCEDKAIHHFIEGVKINQKSREKEKMKDKLQKIAKMRLSKNGADSEALHVLAFLQELNEKMQQADEDSERGLESGSLIPSASSWNGE [IFIT2] | 0.432 | -0.2
3 | MAPGSRGERSSFRSRRGPGVPSPQPDVTMLSRLLKEHQAKQNERKELQEKRRREAITAATCLTEALVDHLNVGVAQAYMNQRKLDHEVKTLQVQAAQFAKQTGQWIGMVENFNQALKEIGDVENWARSIELDMRTIATALEYVYKGQLQSAPS [BLOC1S1] | 0.51 | 0.133
4 | CAPN15 | -0.427 | -0.0119
5 | MASSLLAGERLVRALGPGGELEPERLPRKLRAELEAALGKKHKGGDSSSGPQRLVSFRLIRDLHQHLRERDSKLYLHELLEGSEIYLPEVVKPPRNPELVARLEKIKIQLANEEYKRITRNVTCQDTRHGGTLSDLGKQVRSLKALVITIFNFIVTVVAAFVCTYLGSQYIFTEMASRVLAALIVASVVGLAELYVMVRAMEGELGEL [TMEM199] | -0.349 | -0.0986
6 | MLRVVSWNINGIRRPLQGVANQEPSNCAAVAVGRILDELDADIVCLQETKVTRDALTEPLAIVEGYNSYFSFSRNRSGYSGVATFCKDNATPVAAEEGLSGLFATQNGDVGCYGNMDEFTQEELRALDSEGRALLTQHKIRTWEGKEKTLTLINVYCPHADPGRPERLVFKMRFYRLLQIRAEALLAAGSHVIILGDLNTAHRPIDHWDAVNLECFEEDPGRKWMDSLLSNLGCQSASHVGPFIDSYRCFQPKQEGAFTCWSAVTGARHLNYGSRLDYVLGDRTLVIDTFQASFLLPEVMGSDHCPVGAVLSVSSVPAKQCPPLCTRFLPEFAGTQLKILRFLVPLEQSPVLEQSTLQHNNQTRVQTCQNKAQVRSTRPQPSQVGSSRGQKNLKSYFQPSPSCPQASPDIELPSLPLMSALMTPKTPEEKAVAKVVKGQAKTSEAKDEKELRTSFWKSVLAGPLRTPLCGGHREPCVMRTVKKPGPNLGRRFYMCARPRGPPTDPSSRCNFFLWSRPS [APEX2] | 0.0896 | -0.0093
7 | MGVALRKLTQWTAAGHGTGILEITPLNEAILKEIIVFVESFIYKHPQEAKFVFVEPLEWNTSLAPSAFESGYVVSETTVKSEEVDKNGQPLLFLSVPQIKIRSFGQLSRLLLIAKTGKLKEAQACVEANRDPIVKILGSDYNTMKENSIALNILGKITRDDDPESEIKMKIAMLLKQLDLHLLNHSLKHISLEISLSPMTVKKDIELLKRFSGKGNQTVLESIEYTSDYEFSNGCRAPPWRQIRGEICYVLVKPHDGETLCITCSAGGVFLNGGKTDDEGDVNYERKGSIYKNLVTFLREKSPKFSENMSKLGISFSEDQQKEKDQLGKAPKKEEAAALRKDISGSDKRSLEKNQINFWRNQMTKRWEPSLNWKTTVNYKGKGSAKEIQEDKHTGKLEKPRPSVSHGRAQLLRKSAEKIEETVSDSSSESEEDEEPPDHRQEASADLPSEYWQIQKLVKYLKGGNQTATVIALCSMRDFSLAQETCQLAIRDVGGLEVLINLLETDEVKCKIGSLKILKEISHNPQIRQNIVDLGGLPIMVNILDSPHKSLKCLAAETIANVAKFKRARRVVRQHGGITKLVALLDCAHDSTKPAQSSLYEARDVEVARCGALALWSCSKSHTNKEAIRKAGGIPLLARLLKTSHENMLIPVVGTLQECASEENYRAAIKAERIIENLVKNLNSENEQLQEHCAMAIYQCAEDKETRDLVRLHGGLKPLASLLNNTDNKERLAAVTGAIWKCSISKENVTKFREYKAIETLVGLLTDQPEEVLVNVVGALGECCQERENRVIVRKCGGIQPLVNLLVGINQALLVNVTKAVGACAVEPESMMIIDRLDGVRLLWSLLKNPHPDVKASAAWALCPCIKNAKDAGEMVRSFVGGLELIVNLLKSDNKEVLASVCAAITNIAKDQENLAVITDHGVVPLLSKLANTNNNKLRHHLAEAISRCCMWGRNRVAFGEHKAVAPLVRYLKSNDTNVHRATAQALYQLSEDADNCITMHENGAVKLLLDMVGSPDQDLQEAAAGCISNIRRLALATEKARYT [ARMC4] | 0.0866 | 0.00126
8 | MARRSQSSSQGDNPLAPGYLPPHYKEYYRLAVDALAEGGSEAYSRFLATEGAPDFLCPEELEHVSRHLRPPQYVTREPPEGSLLDVDMDGSSGTYWPVNSDQAVPELDLGWPLTFGFQGTEVTTLVQPPPPDSPSIKDEARRMIRSAQQVVAVVMDMFTDVDLLSEVLEAAARRVPVYILLDEMNAQHFLDMADKCRVNLQHVDFLRVRTVAGPTYYCRTGKSFKGHVKEKFLLVDCAVVMSGSYSFMWSFEKIHRSLAHVFQGELVSSFDEEFRILFAQSEPLVPSAAALARMDAYALAPYAGAGPLVGVPGVGAPTPFSFPKRAHLLFPPPREEGLGFPSFLDPDRHFLSAFRREEPPRMPGGALEPHAGLRPLSRRLEAEAGPAGELAGARGFFQARHLEMDAFKRHSFATEGAGAVENFAAARQVSRQTFLSHGDDFRFQTSHFHRDQLYQQQYQWDPQLTPARPQGLFEKLRGGRAGFADPDDFTLGAGPRFPELGPDGHQRLDYVPSSASREVRHGSDPAFAPGPRGLEPSGAPRPNLTQRFPCQAAARPGPDPAPEAEPERRGGPEGRAGLRRWRLASYLSGCHGEDGGDDGLPAPMEAEAYEDDVLAPGGRAPAGDLLPSAFRVPAAFPTKVPVPGPGSGGNGPEREGPEEPGLAKQDSFRSRLNPLVQRSSRLRSSLIFSTSQAEGAAGAAAATEKVQLLHKEQTVSETLGPGGEAVRSAASTKVAELLEKYKGPARDPGGGAGAITVASHSKAVVSQAWREEVAAPGAVGGERRSLESCLLDLRDSFAQQLHQEAERQPGAASLTAAQLLDTLGRSGSDRLPSRFLSAQSHSTSPQGLDSPLPLEGSGAHQVLHNESKGSPTSAYPERKGSPTPGFSTRRGSPTTGFIEQKGSPTSAYPERRGSPVPPVPERRSSPVPPVPERRGSLTLTISGESPKAGPAEEGPSGPMEVLRKGSLRLRQLLSPKGERRMEDEGGFPVPQENGQPESPRRLSLGQGDSTEAATEERGPRARLSSATANALYSSNLRDDTKAILEQISAHGQKHRAVPAPSPGPTHNSPELGRPPAAGVLAPDMSDKDKCSAIFRSDSLGTQGRLSRTLPASAEERDRLLRRMESMRKEKRVYSRFEVFCKKEEASSPGAGEGPAEEGTRDSKVGKFVPKILGTFKSKK [FAM83H] | -0.733 | -0.0789
9 | NISCH | -0.0187 | 0.0432
10 | MCDQQQIQCRLPLQQCCVKGPSFCSSQSPFAQSQVVVQAPCEMQIVDCPASCPVQVCQVSDQAPCQSQTTQVKCQSKTKQVKGQAQCQSKTTQVKGQAASQSQTSSVQSQAPCQSEVSYVQCEASQPVQTCFVECAPVCYTETCYVECPVQNYVPCPAPQPVQMYRGRPAVCQPQGRFSTQCQYQGSYSSCGPQFQSRATCNNYTPQFQLRPSYSSCFPQYRSRTSFSPCVPQCQTQGSYGSFTEQHRSRSTSRCLPPPRRLQLFPRSCSPPRRFEPCSSSYLPLRPSEGFPNYCTPPRRSEPIYNSRCPRRPISSCSQRRGPKCRIEISSPCCPRQVPPQRCPVEIPPIRRRSQSCGPQPSWGASCPELRPHVEPRPLPSFCPPRRLDQCPESPLQRCPPPAPRPRLRPEPCISLEPRPRPLPRQLSEPCLYPEPLPALRPTPRPVPLPRPGQCEIPEPRPCLQPCEHPEPCPRPEPIPLPAPCPSPEPCRETWRSPSPCWGPNPVPYPGDLGCHESSPHRLDTEAPYCGPSSYNQGQESGAGCGPGDVFPERRGQDGHGDQGNAFAGVKGEAKSAYF [KPRP] | -1.06 | 1.12
11 | MEDKRNIQIIEWEHLDKKKFYVFGVAMTMMIRVSVYPFTLIRTRLQVQKGKSLYHGTFDAFIKILRADGITGLYRGFLVNTFTLISGQCYVTTYELTRKFVADYSQSNTVKSLVAGGSASLVAQSITVPIDVVSQHLMMQRKGEKMGRFQVRGNPEGQGVVAFGQTKDIIRQILQADGLRGFYRGYVASLLTYIPNSAVWWPFYHFYAEQLSYLCPKECPHIVFQAVSGPLAAATASILTNPMDVIRTRVQVEGKNSIILTFRQLMAEEGPWGLMKGLSARIISATPSTIVIVVGYESLKKLSLRPELVDSRHW [SLC25A44] | -0.146 | -0.117
12 | BRCA1 | -0.318 | 0.246

Reference: the supplement of paper PMC5998384
